Reference: paper PMC12780157 (Nature Communications, 2025)
Where two headings read alike, the source gives them in different places.

Experiments:
[1] = target: recombinant Tubulin protein (cat# CSK-T240-B-T) (UniProt P02550); assay: ITC
[2] = target: recombinant Tubulin protein (cat# CSK-T240-B-T) (UniProt P02550); assay: ITC; remark: listed apart in the source
[3] = target: recombinant Tubulin protein (cat# CSK-T240-B-T) (UniProt P02550); assay: ITC; remark: listed apart in the source
[4] = target: β-tubulin (αβ-tubulin heterodimer); assay: X-ray co-crystal structure at […] Å; assay type: binding

Row | Kd [1] [nM] | Kd [2] [nM] | Kd [3] [nM] | Kd [4] [nM] | Compound
1 | 1530 | 520 | 1490 | – | recombinant VASH2 protein (cat# YHK84701) (from UniProt Q86V25 1-355) (enzyme)
2 | – | – | – | 150 ± 10 | COc1c(Cl)cc([C@@H]2c3cc4c(cc3C[C@H]3C(=O)NC(=O)N23)OCCO4)cc1Cl [KY216, (6R,10aS)-6-(3,5-dichloro-4-methoxyphenyl)-2,3,10a,11-tetrahydro-[1,4]dioxino[2,3-g]imidazo[1,5-b]isoquinoline-8,10(6H,9H)-dione]
